From US20180244730A1 (OXFORD UNIVERSITY INNOVATION, published 2018)

B1: SnoopCatcher (designed binder)
chain: MGSSHHHHHHSSGLVPRGSHMKPLRGAVFSLQKQHPDYPDIYGAIDQNGTYQNVRTGEDGKLTFKNLSDGKYRLFENSEPAGYKPVQNKPIVAFQIVNGEVRDVTSIVPQDIPATYEFTNGKHYITNEPIPPK
notes: also called SnoopCatcher fused to a His-Tag

Assays:
SnoopTag-MBP [1] = assay: mixing, SDS-PAGE with Coomassie staining (covalent isopeptide adduct)
SnoopCatcher [2] = target: B1; assay: electrospray ionization mass spectrometry
SnoopTag-MBP [3] = assay: mixing, SDS-PAGE with Coomassie staining
SpyCatcher = target: T1, SpyCatcher; assay: mixing, SDS-PAGE with Coomassie staining
T1 construct: also called pDEST14-SpyCatcher (GenBank JQ478411, Addgene plasmid ID 35044)
T1 sequence (chain, as listed by the source): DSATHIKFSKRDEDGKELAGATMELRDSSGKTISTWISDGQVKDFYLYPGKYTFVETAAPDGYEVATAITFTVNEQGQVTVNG

SnoopCatcher [4] = target: B1; assay: mixing, SDS-PAGE with Coomassie staining

Binder: B1
- binding result (SnoopTag-MBP [1]): binds

B2: synthetic SnoopTag peptide (peptide)
peptide: KLGDIEFIKVNK
- binding result (SnoopCatcher [2]): binds

B3: RrgACatcher (designed binder)
chain: KLGDIEFIKVNKNDKKPLRGAVFSLQKQHPDYPDIYGAIDQNGTYQNVRTGEDGKLTFKNLSDGKYRLFENSEPAGYKPVQNKPIVAFQIVNGEVRDVTSIVPQ
- binding result (SnoopTag-MBP [3]): no binding
- binding result (SpyCatcher): no binding
- binding result (SnoopCatcher [4]): no binding
